{"source": "IntAct's records for PubMed 26051712", "parents": {"B1": {"name": "Inner nuclear membrane protein SRC1 (Saccharomyces cerevisiae), Q03707 (parent)", "chain": "MNSDLEYLEDGFDPNSMKVATLRRILVENNVDFPSNARKNALVGLFDEKVKPQIPQLRKMYLNVRPSDEGIVKMDRPSSSPSIASPRRSRRARREKSASPMAKQFKKNRILDDVSNDDDDDDDDDDDNDKKDDPLIVPSGTDTDEVDDEEDDVITSSSNKSDTNDFQQNSDTRKKRKDPDSDDWSESNSKENKIDNKHLNLLSSDSEIEQDYQKAKKRKTSDLNQEHGNGSAILGKLSVKTPIKNTNRKPVSMDNFNDSLTSSGTENDPFVPNIRHNPKELGTANGTGHSTPLSKLKVSASFADKLPQKEVPSTILVPEVEQQEPSQSERTPSLFSSEGSGSESEAPLLPEITTPGPHQPMGNTSNNVVEMIDTDSSNLVSDEDEVLVPTRIETPQLPTEKDVEKCEARVQELQEEVNEQLEHENGSEFDVKQGSGKVGNRHKFKRALKFLSKSLLALFLFCIFIVIPLLFGLWYREQRLLIGYCGHEVPSHRVSGNSFEFIQKLDNLLQDYRPKCIPCPPNGICYPYLKLKCKPDYKLAPSRLDFLEIIPAQGKCVKDDKKQQLVSEVVEKSLEFLRAKNAQISCGDGKDDIESGMTEDALYQIFNEARAPWIRDDEFEDLWIQVIKDLTEEPEILWRQLSPTDNNIGGNSNNIIKTNDVPRQKRHLPEKFISKTRNFRSTSKKYIGMKCRFEREIYQTYKKFQRPIWLMFLLIVISKVIEIKLKNYYRKKARIEELVTQTMEKLKFQKIKSMSDPKENAYLSIVQLRDIFLSDIVDLKYKNQLWSEVVKYLEHNNSNIKSNLTEIRGEIMKCWEWIGPMELNEPKDSAENKI"}, "B2": {"name": "Inner nuclear membrane protein HEH2 (Saccharomyces cerevisiae), Q03281 (parent)", "chain": "MDHRNLDPKTLKVSQLRRVLVENDVAFPANARKPVLVKLFEEKVRQRLQSSPEASKVRTSIQKVVKSGAKNADRKKTLKSKKLESSSSESKTVKDENVETNKRKREQISTDNEAKMQIQEEKSPKKKRKKRSSKANKPPESPPQSKSDGKATSADLTSELETVEELHKKDSSDDKPRVKELPKPELPNLKVSNEFLAQLNKELASAATENYDHSIKSTDLSSIRIETEEPVGPSTGAETRNESEVMENINLEVQPEVKEAKEELTKISETFDNQDEEDTSRLSSKKNIRSPKGRTRHFIANKTKRGIDIMKPFIAHLFIWLWNGAIFLSIICPILFGLWYREQRIQVGYCGHEKPLKSLAISAFPQTERVDSVLQAYRPNCLECPEHGICSSFMNVECEPGYEPKSSILETYGIIPFPKYCAKDESKEKEVDELVWKVNEYLKKKNAQHECGEGENLFESGETETKLYDIFSHSRPSWESQREFNDHWKNVLEILKKKDDIIWLPLDFETNGKREKSKSNNTNYIYRSTSKKWVTLQCHLEGDIQEYITKYGGSLFITLGVLFLIKKIQSTLDNYVQGEQIIEKLVKEAIDKLKDVKKNKGEEPFLTTVQLRATLLSDIPNIKEQNNLWAQTKEKIMKEQSENIELYLLEENGEIMTCWEWKE"}}}
{"variants_of": "B1", "settings": "with ima1_yeast SRP1, Q02821"}
{"variant": "K190A", "effect of a mutation on the interaction": "decreasing interaction strength"}
{"variants_of": "B1", "settings": "with ima1_yeast SRP1, Q02821", "remark": "another data set of the same source"}
{"variant": "R176A", "effect of a mutation on the interaction": "decreasing interaction strength"}
{"variant": "R176A;K190A", "effect of a mutation on the interaction": "decreasing interaction strength"}
{"variants_of": "B2", "settings": "with ima1_yeast SRP1, Q02821"}
{"variant": "R103A;K126A", "effect of a mutation on the interaction": "decreasing interaction strength"}
{"variant": "R103A", "effect of a mutation on the interaction": "decreasing interaction strength"}
{"variant": "K126A", "effect of a mutation on the interaction": "decreasing interaction strength"}
